The chains are these.
B1: wild-type Tie2 ectodomain-Fc [human] / Angiopoietin-1 [not stated] (parent complex)
chain 1: AMDLILINSLPLVSDAETSLTCIASGWRPHEPITIGRDFEALMNQHQDPLEVTQDVTREWAKKVVWKREKASKINGAYFCEGRVRGEAIRIRTMKMRQQASFLPATLTMTVDKGDNVNISFKKVLIKEEDAVIYKNGSFIHSVPRHEVPDILEVHLPHAQPQDAGVYSARYIGGNLFTSAFTRLIVRRCEAQKWGPECNHLCTACMNNGVCHEDTGECICPPGFMGRTCEKACELHTFGRTCKERCSGQEGCKSYVFCLPDPYGCSCATGWKGLQCNEACHPGFYGPDCKLRCSCNNGEMCDRFQGCLCSPGWQGLQCEREGIQRMTPKIVDLPDHIEVNSGKFNPICKASGWPLPTNEEMTLVKPDGTVLHPKDFNHTDHFSVAIFTIHRILPPDSGVWVCSVNTVAGMVEKPFNISVK
chain 2: HIGCSNQRRSPENSGRRYNRIQHGQCAYTFILPEHDGNCRESTTDQYNTNALQRDAPHVEPDFSSQKLQHLEHVMENYTQWLQKLENYIVENMKSEMAQIQQNAVQNHTATMLEIGTSLLSQTAEQTRKLTDVETQVLNQTSRLEIQLLENSLSTYKLEKQLLQQTNEILKIHEKNSLLEHKILEMEGKHKEELDTLKEEKENLQGLVTRQTYIIQELEKQLNRATTNNSVLQKQQLELMDTVHNLVNLCTKEGVLLKGGKREEEKPFRDCADVYQAGFNKSGIYTIYINNMPEPKKVFCNMDVNGGGWTVIQHREDGSLDFQRGWKEYKMGFGNPSGEYWLGNEFIFAITSQRQYMLRIELMDWEGNRAYSQYDRFHIGNEKQNYRLYLKGHTGTAGKQSSLILHGADFSTKDADNDNCMCKCALMLTGGWWFDACGPSNLNGMFYTAGQNHGKLNGIKWHYFKGPSYSLRSTTMMIRPLDF
B2: wild-type Tie2 ectodomain-Fc [human] / Angiopoietin-2 [not stated] (parent complex)
chain 1: B1 chain 1
chain 2: YNNFRKSMDSIGKKQYQVQHGSCSYTFLLPEMDNCRSSSSPYVSNAVQRDAPLEYDDSVQRLQVLENIMENNTQWLMKLENYIQDNMKKEMVEIQQNAVQNQTAVMIEIGTNLLNQTAEQTRKLTDVEAQVLNQTTRLELQLLEHSLSTNKLEKQILDQTSEINKLQDKNSFLEKKVLAMEDKHIIQLQSIKEEKDQLQVLVSKQNSIIEELEKKIVTATVNNSVLQKQQHDLMETVNNLLTMMSTSNSAKDPTVAKEEQISFRDCAEVFKSGHTTNGIYTLTFPNSTEEIKAYCDMEAGGGGWTIIQRREDGSVDFQRTWKEYKVGFGNPSGEYWLGNEFVSQLTNQQRYVLKIHLKDWEGNEAYSLYEHFYLSSEELNYRIHLKGLTGTAGKISSISQPGNDFSTKDGDNDKCICKCSQMLTGGWWFDACGPSNLNGMYYPQRQNTNKFNGIKWYYWKGSGYSLKATTMMIRPADF

One test covers variants of B1. In words: ELISA (named by the earlier reader; legend does not name the assay); mutant read at its highest concentration point, about 300 nM Tie2 ectodomain; parent value is the wild-type curve's highest concentration point, about 30-50 nM; parent: 1; read off a plot. For orientation: In an ELISA, binding on a coated surface is turned into a signal by an enzyme label.
With chain 1 AMDLILINSLPLVSDAETSLTCIASGWRPHEPITIGRDFEALMNQHQDPLEVTQDVTREWAKKVVWKREKASKINGAYFCEGRVRGEAIRIRTMKMRQQASFLPATLTMTVDKGDNVNISFKKVLIKEEDAVIYKNGSFIHSVPAAEVPDILEVHLPHAQPQDAGVYSARYIGGNLFTSAFTRLIVRRCEAQKWGPECNHLCTACMNNGVCHEDTGECICPPGFMGRTCEKACELHTFGRTCKERCSGQEGCKSYVFCLPDPYGCSCATGWKGLQCNEACHPGFYGPDCKLRCSCNNGEMCDRFQGCLCSPGWQGLQCEREGIQRMTPKIVDLPDHIEVNSGKFNPICKASGWPLPTNEEMTLVKPDGTVLHPKDFNHTDHFSVAIFTIHRILPPDSGVWVCSVNTVAGMVEKPFNISVK [chain 1 R145A, chain 1 H146A], the response is approximately 0.88 AU.

A further test covers variants of B1. The test can be described thus: ELISA (named by the earlier reader; legend does not name the assay); mutant read at its highest concentration point, about 300 nM Tie2 ectodomain; parent value is the wild-type curve's highest concentration point, about 50-100 nM; parent: …; read off a plot.
For chain 1 AMDLILINSLPLVSDAETSLTCIASGWRPHEPITIGRDFEALMNQHQDPLEVTQDVTREWAKKVVWKREKASKINGAYFCEGRVRGEAIRIRTMKMRQQASFLPATLTMTVDKGDNVNISFKKVLIKEEDAVIYKNGSFIHSVPAAAVPDILEVHLPHAQPQDAGVYSARYIGGNLFTSAFTRLIVRRCEAQKWGPECNHLCTACMNNGVCHEDTGECICPPGFMGRTCEKACELHTFGRTCKERCSGQEGCKSYVFCLPDPYGCSCATGWKGLQCNEACHPGFYGPDCKLRCSCNNGEMCDRFQGCLCSPGWQGLQCEREGIQRMTPKIVDLPDHIEVNSGKFNPICKASGWPLPTNEEMTLVKPDGTVLHPKDFNHTDHFSVAIFTIHRILPPDSGVWVCSVNTVAGMVEKPFNISVK [chain 1 R145A, chain 1 H146A, chain 1 E147A], the response is approximately 0.09 AU.

Another test covers variants of B2. The test can be described thus: ELISA (named by the earlier reader; legend does not name the assay); mutant read at its highest concentration point, about 300 nM Tie2 ectodomain; parent value is the wild-type curve's highest concentration point, about 50 nM; parent: 0.9; read off a plot.
On to chain 1 AMDLILINSLPLVSDAETSLTCIASGWRPHEPITIGRDFEALMNQHQDPLEVTQDVTREWAKKVVWKREKASKINGAYFCEGRVRGEAIRIRTMKMRQQASFLPATLTMTVDKGDNVNISFKKVLIKEEDAVIYKNGSFIHSVPAAAVPDILEVHLPHAQPQDAGVYSARYIGGNLFTSAFTRLIVRRCEAQKWGPECNHLCTACMNNGVCHEDTGECICPPGFMGRTCEKACELHTFGRTCKERCSGQEGCKSYVFCLPDPYGCSCATGWKGLQCNEACHPGFYGPDCKLRCSCNNGEMCDRFQGCLCSPGWQGLQCEREGIQRMTPKIVDLPDHIEVNSGKFNPICKASGWPLPTNEEMTLVKPDGTVLHPKDFNHTDHFSVAIFTIHRILPPDSGVWVCSVNTVAGMVEKPFNISVK [chain 1 R145A, chain 1 H146A, chain 1 E147A], for which the response was approximately 0.58 AU.

Variants of B2 are the subject of a further test. In words: ELISA (named by the earlier reader; legend does not name the assay); mutant read at its highest concentration point, about 300 nM Tie2 ectodomain; parent value is the wild-type curve's highest concentration point, about 50 nM; parent: 1; read off a plot.
As for chain 1 AMDLILINSLPLVSDAETSLTCIASGWRPHEPITIGRDFEALMNQHQDPLEVTQDVTREWAKKVVWKREKASKINGAYFCEGRVRGEAIRIRTMKMRQQASFLPATLTMTVDKGDNVNISFKKVLIKEEDAVIYKNGSFIHSVPAAEVPDILEVHLPHAQPQDAGVYSARYIGGNLFTSAFTRLIVRRCEAQKWGPECNHLCTACMNNGVCHEDTGECICPPGFMGRTCEKACELHTFGRTCKERCSGQEGCKSYVFCLPDPYGCSCATGWKGLQCNEACHPGFYGPDCKLRCSCNNGEMCDRFQGCLCSPGWQGLQCEREGIQRMTPKIVDLPDHIEVNSGKFNPICKASGWPLPTNEEMTLVKPDGTVLHPKDFNHTDHFSVAIFTIHRILPPDSGVWVCSVNTVAGMVEKPFNISVK [chain 1 R145A, chain 1 H146A], the response was approximately 1 AU.
